Data on 1 substance can be found in paper PMC6774351.

What is called Kd is the concentration at which binding is half-saturated.

The target in the experiment is Alexa488-labelled NLRP3 (human). The experiment in a line: MST.

The substance “NEK7 (wild type; NEK7 monomer) (from UniProt Q8TDX7 1-302) (enzyme)” came in with a Kd of 78.9 nM.
